Results on two substances are retold here after publication PMC3536784, “Structural Characterization of Pandoraea pnomenusa B-356 Biphenyl Dioxygenase Reveals Features of Potent Polychlorinated Biphenyl-Degrading Enzymes” (PLoS ONE, 2013).

By kcat is commonly meant the number of substrate molecules converted per active site and unit of time at saturation. As a reminder, the kcat/Km is the turnover number divided by the Michaelis constant.

The data set deals with c1ccc(-c2ccccc2)cc1. The data set can be described thus: purified protein. The note with it: apparent, air-saturated 50 mM MES pH 6.0, NADH 123 µM, BphG B356 and BphF LB400 as electron transfer partners, Fe(II) added, well coupled.

Description: O2 consumption, Clark-type oxygen electrode on BPDOB356 (biphenyl dioxygenase, oxygenase component BphAE)

“BPDOB356 (biphenyl dioxygenase, oxygenase component BphAE) (Comamonas testosteroni; M231A)”: the Km was 9.4 (1.9) µM, the kcat was found to be 2.1 s⁻¹ and the kcat/Km was found to be 200000 M⁻¹ s⁻¹.
In the case of “BPDOB356 (biphenyl dioxygenase, oxygenase component BphAE) (Comamonas testosteroni; M231T)”, the Km is given as 11.1 (3.1) µM, the kcat was found to be 2.9 s⁻¹ and the kcat/Km amounted to 300000 M⁻¹ s⁻¹.
